Results as given in PMC6538607.

Legend:
[1] = target: p43, the major excreted/secreted protein of Trichuris muris (native p43) (Trichuris muris); test: native MS; p43 and IL-13 mixed at a ratio of 1.5:1 in 250 mM ammonium acetate, pH 7, 2 h at room temperature; nano-electrospray, collision-induced dissociation of the mass-selected 18+ ion of the complex
[2] = target: p43, the major excreted/secreted protein of Trichuris muris (native p43) (Trichuris muris); test: MST; serial dilution of IL-13 from 2500 nM to 40 pM with 5 nM NHS-647-labeled p43; 20 mM HEPES, 150 mM NaCl, 0.005% Tween-20, pH 7.4; KD model (1:1 stoichiometry); three reactions

B1: recombinant murine interleukin-13 (ligand)
chain: APGPVPRSVSLPLTLKELIEELSNITQDQTPLCNGSMVWSVDLAAGGFCVALDSLTNISNCNAIYRTQRILHGLCNRKAPTTVSSLPDTKIEVAHFITKLLSYTKQLFRHGPF
stoichiometry N [1]: 1 | Kd [2]: 420 nM
